We go through one molecule from US20070196354A1, “Method of treating diabetes by inhibiting degradation of at least one of crebl1, atf6, and hnf-4 alpha by htra” (priority 2003, published 2007).

One experiment relates to casein. The experiment can be described thus: Casein zymography and protease assay with casein sodium. The format is biochemical. As to conditions: casein zymography and casein sodium protease assay, 37° C., E. coli-expressed His-tagged protein. The method, then: Determination of the activity of mature HtrA2 and mature HtrA2 (S306A) was carried out with casein zymography and with a protease assay with casein sodium. Casein zymography was carried out according to the protocol (Invitrogen). More concretely, mature HtrA2 and mature HtrA2 (S306A) were mixed under non-reductive condition with equivalent volume of 2×SDS sample buffer, left to stand at room temperature for 10 min, followed by separation with 4-16% zymogram (Blue casein) gel (Zymogram Gel, Invitrogen). After completion of electrophoresis, they were renatured with 2.5% Triton X-100, and then subjected to a degradation reaction of casein in the developing buffer at 37= C. for overnight.
Meanwhile, a protease assay using casein sodium as an substrate was carried out in such that mature HtrA2 or mature HtrA2 (S306A) was mixed with casein sodium in a reaction buffer (150 mM NaCl, 50 mM Tris-HCl (pH 7.5)) so as to the concentration of the former might become 200 μg/ml and the concentration of the latter might become 400 μg/ml, and incubated at 37° C. for reactions. A portion of the reaction solution was sampled at three hours and overnight after initiation of the reaction, mixed with equivalent volume of 2×SDS sample buffer followed by boiling, and then subjected to SDS-PAGE. After that, the degradation of casein sodium was detected by Coomassie Brilliant Blue (CBB) staining.
The enzyme activity of the various types of HtrA2 each of which was expressed in a cultured cell was determined by the protease assay using casein sodium as a substrate (see Example 2).

In the next experiment the target is T1, biotinylated CREBL1 (Homo sapiens, UniProt Q99941).
T1 construct: made in house; host or cells: cell-free: rabbit reticulocyte lysate (TNT Transcription/Translation System, Promega); the unpurified reaction solution was used
T1 sequence (Q99941 1-703): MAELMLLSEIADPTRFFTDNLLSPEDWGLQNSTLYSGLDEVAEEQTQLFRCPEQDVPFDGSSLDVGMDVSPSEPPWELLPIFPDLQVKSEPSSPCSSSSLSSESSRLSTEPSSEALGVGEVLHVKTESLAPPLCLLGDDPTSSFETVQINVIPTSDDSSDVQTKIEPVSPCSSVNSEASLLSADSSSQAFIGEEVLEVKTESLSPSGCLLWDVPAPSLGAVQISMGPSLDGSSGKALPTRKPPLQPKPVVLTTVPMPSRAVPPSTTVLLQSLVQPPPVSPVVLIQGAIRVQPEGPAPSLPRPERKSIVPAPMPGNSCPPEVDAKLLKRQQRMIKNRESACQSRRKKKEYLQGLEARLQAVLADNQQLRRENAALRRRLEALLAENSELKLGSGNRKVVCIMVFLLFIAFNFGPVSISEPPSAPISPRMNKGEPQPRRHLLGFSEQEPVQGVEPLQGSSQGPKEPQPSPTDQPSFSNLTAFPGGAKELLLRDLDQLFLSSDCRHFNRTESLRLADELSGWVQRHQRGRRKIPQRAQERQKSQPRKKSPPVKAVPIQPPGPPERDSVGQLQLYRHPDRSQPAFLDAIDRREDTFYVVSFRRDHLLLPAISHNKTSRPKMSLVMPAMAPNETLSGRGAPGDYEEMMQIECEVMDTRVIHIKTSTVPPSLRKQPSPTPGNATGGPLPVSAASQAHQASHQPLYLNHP
The experiment can be described thus: In vitro protease assay using biotinylated CREBL1 (degradation pattern). The format is biochemical. The note with it: 37° C., 4 hours or overnight. The method, then:
More concretely, first, 1.5 μl of the animal cell expression plasmid for CREBL1 (1 μg/μl), 1 μl of 1 mM methionine, 1 μl of biotinylated lysine tRNA (Promega), and 6.5 μl of nuclease free water were added to 40 μl of in vitro translation reaction solution (TNT® Quick Master Mix) to obtain total volume of 50 μl, and reacted for at 30° C. for 1.5 hours. Following this, 12.5 μl of 50 μl reaction solution was sampled, followed by adding with 2×SDS sample buffer and boiling, to detect the expression of biotinylated CREBL1 by western blotting. The detection was carried out using streptavidin HRP (Promega) and Transcend™ Chemiluminescent substrate (Transcend™ Non-Radioactive Translation detection system; Promega). As a result, biotinylation of CREBL1 was confirmed in sample.
The reaction solution was used as the sample for protease assay. 12.5 μl each of the reaction solution was dispensed to three tubes (Nos. 2 to 4). 25 μl of 50 mM Tris-HCl (pH 7.5), 150 mM NaCl, 0.01% Triton X-100 was added as the control to tube No. 2, 25 μl of 200 μg/m mature HtrA2 solution was added to tube No. 3, and 25 μl of 200 μg/ml mature HtrA2 (S306A) solution was added to tube No. 4, respectively, and mixed. […]

B1: mature HtrA2: SEQ ID NO: 4; mature protein generated from HtrA2 precursor by cleavage of N-terminal 133 residues, has protease activity (protein, listed as Homo sapiens)
chain: MAVPSPPPASPRSQYNFIADVVEKTAPAVVYIEILDRHPFLGREVPISNGSGFVVAADGLIVTNAHVVADRRRVRVRLLSGDTYEAVVTAVDPVADIATLRIQTKEPLPTLPLGRSADVRQGEFVVAMGSPFALQNTITSGIVSSAQRPARDLGLPQTNVEYIQTDAAIDFGNSGGPLVNLDGEVIGVNTMKVTAGISFAIPSDRLREFLHRGEKKNSSSGISGSQRRYIGVMMLTLSPSILAELQLREPSFPDVQHGVLIHKVILGSPAHRAGLRPGDVILAIGEQMVQNAEDVYEAVRTQSQLAVQIRRGRETLTLYVTPEVTE
modifications: mature HtrA2
Take B1: in the experiment on casein, the degradation of casein result was “degradation of casein by mature HtrA2 was observed”. The “degradation of N-terminal tagged-CREBL1, detecting the Tag” value with biotinylated CREBL1 (anti-Tag antibody) was “The band of N-terminal tagged-CREBL1 was reduced significantly”. Further, the “degradation of biotinylated CREBL1, detecting the biotin” value with biotinylated CREBL1 (streptavidin HRP) is reported as “The band of biotinylated CREBL1 was reduced significantly”.
